Laboratory results reported in US20080125491A1 (ARENA PHARMACEUTICALS, published 2008).
Read-outs that look alike come from different tables or passages of the source.

T1: HA/V5 double tagged endogenous human FPRL2 (human)
T1 chain: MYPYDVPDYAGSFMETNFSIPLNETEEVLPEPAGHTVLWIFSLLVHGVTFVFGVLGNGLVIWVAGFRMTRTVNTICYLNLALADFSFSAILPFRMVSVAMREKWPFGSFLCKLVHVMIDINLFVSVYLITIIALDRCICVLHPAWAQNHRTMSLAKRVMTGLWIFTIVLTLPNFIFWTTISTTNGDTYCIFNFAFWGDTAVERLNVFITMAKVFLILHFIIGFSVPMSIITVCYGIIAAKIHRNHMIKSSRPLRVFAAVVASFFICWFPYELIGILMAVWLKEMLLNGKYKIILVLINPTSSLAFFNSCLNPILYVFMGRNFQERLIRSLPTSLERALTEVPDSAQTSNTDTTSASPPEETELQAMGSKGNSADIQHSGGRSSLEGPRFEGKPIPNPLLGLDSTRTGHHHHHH


What was measured:
Experiment in all cases: cell-based or functional assay
[1] = target: HA/V5 double-tagged endogenous human FPRL1 (human) (UniProt P25090)
Sequence of HA/V5 double-tagged endogenous human FPRL1 (human) (P25090 other isoform, or with tags, fused parts or gaps): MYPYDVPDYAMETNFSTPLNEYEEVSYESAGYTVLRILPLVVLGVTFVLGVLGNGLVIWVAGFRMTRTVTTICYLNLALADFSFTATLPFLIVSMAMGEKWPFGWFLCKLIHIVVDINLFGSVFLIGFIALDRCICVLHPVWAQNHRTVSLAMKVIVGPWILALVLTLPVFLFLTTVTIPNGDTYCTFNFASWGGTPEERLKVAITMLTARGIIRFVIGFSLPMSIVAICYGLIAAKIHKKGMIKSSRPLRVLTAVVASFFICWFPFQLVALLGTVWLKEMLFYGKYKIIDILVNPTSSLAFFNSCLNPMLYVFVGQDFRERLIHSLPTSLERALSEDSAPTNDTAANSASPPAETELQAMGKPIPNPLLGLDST

[2] = target: HA/V5 double tagged endogenous human FPRL2 (human)
[3] = target: HA/V5 double-tagged endogenous human FPR (human) (UniProt P21462)
Sequence of HA/V5 double-tagged endogenous human FPR (human) (P21462 other isoform, or with tags, fused parts or gaps): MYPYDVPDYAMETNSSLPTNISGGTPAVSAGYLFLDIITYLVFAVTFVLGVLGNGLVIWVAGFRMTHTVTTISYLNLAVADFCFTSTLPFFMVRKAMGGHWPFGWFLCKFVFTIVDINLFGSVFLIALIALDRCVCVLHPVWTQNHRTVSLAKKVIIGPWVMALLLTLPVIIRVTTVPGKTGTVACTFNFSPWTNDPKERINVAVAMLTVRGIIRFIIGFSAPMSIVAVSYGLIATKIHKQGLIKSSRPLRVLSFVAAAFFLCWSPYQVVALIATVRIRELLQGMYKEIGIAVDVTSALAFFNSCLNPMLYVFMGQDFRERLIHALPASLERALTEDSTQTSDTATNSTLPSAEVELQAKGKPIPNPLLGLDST

[4] = target: T1, HA/V5 double tagged endogenous human …

| EC50, [35S]GTPγS binding to membranes of transiently transfected CHO cells [1] [nM] | EC50, [35S]GTPγS binding to membranes of transiently transfected CHO cells [2] [nM] | [35S]GTPγS binding to membranes of transiently transfected CHO cells; highest dose without significant activity [3] [µM] | EC50, [35S]GTPγS binding to membranes of transiently transfected CHO cells [4] [nM] | EC50 of Humanin driven pigment aggregation in melanophore (Gi coupling) [4] [nM] | Molecule |
| --- | --- | --- | --- | --- | --- |
| 1500 | 72 | > 10 | – | – | [Gly14]-Humanin (peptide) |
| – | – | – | ~320 | ~239 | MAPRGFSCLLLLTSEIDLPVKRRA [Humanin] |
